Test results: publication PMC2744858

Columns and labels:
14-3-3σ = 14-3-3σ (UniProt P31947); test: GST pull-down, 14-3-3σ-His6 western blot; details: reference: wild-type GST-PACS-2MR; sites S437
14-3-3ζ = 14-3-3ζ (UniProt P63104); test: PACS-2 co-immunoprecipitation, 14-3-3ζ-myc western blot; details: reference: wild-type HA-PACS-2; sites S437

| Substance | binding against the reference (14-3-3σ) | binding against the reference (14-3-3ζ) |
| --- | --- | --- |
| PACS-2 middle region (MR) (from UniProt Q86VP3) S437A | lost | – |
| PACS-2 (from UniProt Q86VP3) PACS-2 S437A | – | lost |
